Experimental data as given in article PMC3326194 (Nature, 2012).

T1: CFeSP large subunit from Moorella thermoacetica (Moorella thermoacetica, UniProt Q07340 1-446)
T1 sequence (looked up): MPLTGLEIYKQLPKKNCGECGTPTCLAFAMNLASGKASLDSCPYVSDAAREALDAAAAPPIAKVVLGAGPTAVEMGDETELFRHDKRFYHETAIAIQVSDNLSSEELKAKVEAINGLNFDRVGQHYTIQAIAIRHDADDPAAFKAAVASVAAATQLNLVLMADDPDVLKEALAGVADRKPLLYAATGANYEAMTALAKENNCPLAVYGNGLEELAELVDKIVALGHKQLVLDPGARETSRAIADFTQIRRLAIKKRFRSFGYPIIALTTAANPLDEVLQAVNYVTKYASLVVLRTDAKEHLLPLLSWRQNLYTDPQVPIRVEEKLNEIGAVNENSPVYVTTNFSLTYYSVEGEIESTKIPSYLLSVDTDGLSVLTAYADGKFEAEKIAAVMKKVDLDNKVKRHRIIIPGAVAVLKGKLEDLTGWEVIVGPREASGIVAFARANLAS

T2: corrinoid iron-sulfur protein (CFeSP) from Moorella thermoacetica (Moorella thermoacetica, UniProt Q07340 1-446; Q07341 1-323)
T2 sequence (looked up) 1: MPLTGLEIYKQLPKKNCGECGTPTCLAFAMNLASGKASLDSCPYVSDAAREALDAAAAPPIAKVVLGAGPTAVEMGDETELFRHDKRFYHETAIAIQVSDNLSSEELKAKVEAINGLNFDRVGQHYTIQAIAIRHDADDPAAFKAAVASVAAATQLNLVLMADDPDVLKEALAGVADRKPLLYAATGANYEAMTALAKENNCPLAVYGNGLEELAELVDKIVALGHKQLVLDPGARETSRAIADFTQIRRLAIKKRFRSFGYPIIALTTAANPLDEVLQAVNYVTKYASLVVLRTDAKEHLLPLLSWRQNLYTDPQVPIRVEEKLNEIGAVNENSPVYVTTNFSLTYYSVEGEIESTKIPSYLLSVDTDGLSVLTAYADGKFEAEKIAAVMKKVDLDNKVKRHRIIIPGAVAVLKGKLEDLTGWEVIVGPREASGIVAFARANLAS
T2 sequence (looked up) 2: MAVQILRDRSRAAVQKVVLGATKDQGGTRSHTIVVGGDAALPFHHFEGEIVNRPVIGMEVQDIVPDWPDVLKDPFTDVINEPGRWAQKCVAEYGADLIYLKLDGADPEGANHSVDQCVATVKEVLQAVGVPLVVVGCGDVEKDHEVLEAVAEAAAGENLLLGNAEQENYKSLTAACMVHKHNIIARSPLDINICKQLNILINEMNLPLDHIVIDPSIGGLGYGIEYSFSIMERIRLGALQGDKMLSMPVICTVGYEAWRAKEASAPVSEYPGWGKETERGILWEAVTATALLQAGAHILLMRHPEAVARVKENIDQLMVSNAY

B1: CFeSP small subunit from Moorella thermoacetica (natural protein, UniProt Q07341 1-323, looked up)
chain: MAVQILRDRSRAAVQKVVLGATKDQGGTRSHTIVVGGDAALPFHHFEGEIVNRPVIGMEVQDIVPDWPDVLKDPFTDVINEPGRWAQKCVAEYGADLIYLKLDGADPEGANHSVDQCVATVKEVLQAVGVPLVVVGCGDVEKDHEVLEAVAEAAAGENLLLGNAEQENYKSLTAACMVHKHNIIARSPLDINICKQLNILINEMNLPLDHIVIDPSIGGLGYGIEYSFSIMERIRLGALQGDKMLSMPVICTVGYEAWRAKEASAPVSEYPGWGKETERGILWEAVTATALLQAGAHILLMRHPEAVARVKENIDQLMVSNAY

Experiments:
Assay in all cases: crystal structure
[1] = target: T1, CFeSP large subunit from Moorella …
[2] = target: T2, corrinoid iron-sulfur protein (CFeSP) …
[3] = target: B1
[4] = target: the molecule itself

binding result [1] | binding result [2] | binding result [3] | Binder | stoichiometry N [4]
binds |  |  | B1 | 
 | binds | binds | methyltransferase (MeTr) from Moorella thermoacetica (enzyme, UniProt Q46389 1-262, looked up) MLIIGERINGMFGDIKRAIQERDPAPVQEWARRQEEGGARALDLNVGPAVQDKVSAMEWLVEVTQEVSNLTLCLDSTNIKAIEAGLKKCKNRAMINSTNAEREKVEKLFPLAVEHGAALIGLTMNKTGIPKDSDTRLAFAMELVAAADEFGLPMEDLYIDPLILPANVAQDHAPEVLKTLQQIKMLADPAPKTVLGLSNVSQNCQNRPLINRTFLAMAMACGLDAAIADACDEALIETAATAEILLNQTVYCDSFVKMFKTR | 2
